In experiment [1] the target is revertant virus (AD169 CMV with the pentameric gH complex restored). Description: cell-based or functional assay.
Experiment [2] shares this target. The experiment can be described thus: antibody-titration EIA, coated revertant virions.

In experiment [1], “human polyclonal CMV hyperimmune IgG (HIG, CytoGam) (antibody)” registered an EC50 neutralizing (ARPE-19 cells) of 1 µg/mL. Further, the EC50 (as a rule, the midpoint of the concentration-response curve) in experiment [2] turned out to be 2 µg/mL.

The values above are taken from patent publication US20160130327A1.
